Molecular target: Human TCTP (translationally controlled tumor protein) (human) (UniProt P13693)
Assay: SPR, Biacore 8K, human TCTP immobilised on CM5 chip, antibody as analyte, 1:1 model

Chain of Human TCTP (translationally controlled tumor protein) (human) (P13693 whole entry): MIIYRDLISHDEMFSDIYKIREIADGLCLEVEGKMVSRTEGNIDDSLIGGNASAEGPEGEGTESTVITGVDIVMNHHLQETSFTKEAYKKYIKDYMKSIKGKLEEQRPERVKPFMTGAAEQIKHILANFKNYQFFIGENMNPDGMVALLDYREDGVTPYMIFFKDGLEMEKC

B1: 55F3 (antibody, from another filing, V domains shown)
VH: DVQLQESGPGLVKPSQSLSLTCTATGYSIASDYAWNWIRQFPGNKLEWMGYINYSGSTGYNPSLKSRISITRDTSKNQFFLQLNSVTTEDTATYYCARFEAGYWGQGTTLTVSS
VL: DIKMTQSPSSMSASLGERVTITCKASQDINRYLSWFQQKPGKSPKTLIYRANRLVDGVPSRFSGSGSGQDYSLTISSLEYGDMGIYYCLQYNEFPLTFGAGTKLELKR
Kd: 263 nM

Source: patent US20250388694A1
